In patent publication US20160136234A1:

Tests used:
Assay in all cases: cell-based or functional assay
[1] = target: ASK1 (h) (human) (UniProt Q99683)
[2] = target: CDK5/p35 (h) (human) (UniProt Q00535)
[3] = target: CK1γ2 (h) (human) (UniProt P78368)
[4] = target: DMPK (h) (human) (UniProt Q09013)
[5] = target: EGFR (h) (human) (UniProt P00533)
[6] = target: EphA7 (h) (human) (UniProt Q15375)
[7] = target: EphB1 (h) (human) (UniProt P54762)
[8] = target: FGFR2 (h) (human) (UniProt P21802)
[9] = target: Fer (h) (human) (UniProt P16591)
[10] = target: T1, Fms (h) (human) (UniProt P07333)
T1 sequence (looked up): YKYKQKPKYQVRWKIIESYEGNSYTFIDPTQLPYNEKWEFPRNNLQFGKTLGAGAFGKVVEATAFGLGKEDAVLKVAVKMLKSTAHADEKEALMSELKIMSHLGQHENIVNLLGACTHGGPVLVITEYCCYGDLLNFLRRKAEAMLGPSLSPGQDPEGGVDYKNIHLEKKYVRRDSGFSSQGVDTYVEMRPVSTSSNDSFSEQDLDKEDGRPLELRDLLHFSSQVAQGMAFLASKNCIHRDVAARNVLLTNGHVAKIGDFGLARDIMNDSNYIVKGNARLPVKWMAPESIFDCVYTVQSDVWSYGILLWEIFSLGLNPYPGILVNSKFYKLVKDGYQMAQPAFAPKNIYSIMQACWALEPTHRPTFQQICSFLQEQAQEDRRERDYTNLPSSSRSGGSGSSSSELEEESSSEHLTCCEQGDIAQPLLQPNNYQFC

[11] = target: T2, GCK (h) (human) (UniProt Q12851)
T2 sequence (looked up): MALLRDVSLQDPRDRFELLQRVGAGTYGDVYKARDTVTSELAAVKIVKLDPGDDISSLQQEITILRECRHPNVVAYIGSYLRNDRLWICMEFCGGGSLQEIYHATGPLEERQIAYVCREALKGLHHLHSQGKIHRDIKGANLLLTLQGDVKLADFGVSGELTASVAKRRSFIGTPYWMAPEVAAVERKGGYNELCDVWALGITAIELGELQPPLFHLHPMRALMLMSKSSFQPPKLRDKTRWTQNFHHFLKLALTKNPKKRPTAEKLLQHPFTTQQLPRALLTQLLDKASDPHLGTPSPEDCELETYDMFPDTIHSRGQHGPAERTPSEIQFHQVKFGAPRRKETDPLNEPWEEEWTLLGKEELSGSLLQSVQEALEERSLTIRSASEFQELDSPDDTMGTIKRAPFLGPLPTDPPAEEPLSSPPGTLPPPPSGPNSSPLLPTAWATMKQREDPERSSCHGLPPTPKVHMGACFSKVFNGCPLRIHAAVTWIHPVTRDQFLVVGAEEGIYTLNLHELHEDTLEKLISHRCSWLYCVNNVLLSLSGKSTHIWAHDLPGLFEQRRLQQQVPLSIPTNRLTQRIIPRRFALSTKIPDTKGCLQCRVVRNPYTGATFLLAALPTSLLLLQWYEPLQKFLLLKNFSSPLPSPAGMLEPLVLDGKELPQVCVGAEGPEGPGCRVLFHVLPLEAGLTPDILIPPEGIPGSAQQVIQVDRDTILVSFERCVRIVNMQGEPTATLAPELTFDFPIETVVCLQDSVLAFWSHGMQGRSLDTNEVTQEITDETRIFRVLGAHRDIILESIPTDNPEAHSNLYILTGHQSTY

[12] = target: IGF-1R (h), activated (human) (UniProt P08069)
[13] = target: JNK1α1 (h) (human) (UniProt P45983)
[14] = target: MST3 (h) (human) (UniProt Q9Y6E0)
[15] = target: PDGFRβ (h) (human) (UniProt P09619)
[16] = target: PKBα (h) (human) (UniProt P31749)
[17] = target: Pim-3 (h) (human) (UniProt Q86V86)
[18] = target: T3, PrKX (h) (human) (UniProt P51817)
T3 sequence (looked up): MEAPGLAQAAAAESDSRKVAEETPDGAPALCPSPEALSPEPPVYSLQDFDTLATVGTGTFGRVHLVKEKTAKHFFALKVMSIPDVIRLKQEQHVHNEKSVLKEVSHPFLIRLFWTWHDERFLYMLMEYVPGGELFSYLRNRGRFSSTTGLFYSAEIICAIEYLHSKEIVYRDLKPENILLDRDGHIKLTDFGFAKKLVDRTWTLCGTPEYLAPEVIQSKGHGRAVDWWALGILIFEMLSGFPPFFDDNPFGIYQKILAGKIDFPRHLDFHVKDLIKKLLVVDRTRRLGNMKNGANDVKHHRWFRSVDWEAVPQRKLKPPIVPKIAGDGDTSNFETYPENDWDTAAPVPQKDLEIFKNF

[19] = target: ROCK-II (h) (human) (UniProt O75116)
[20] = target: SAPK2b (h) (human) (UniProt Q15759)
[21] = target: T4, SAPK4 (h) (human) (UniProt O15264)
T4 sequence (looked up): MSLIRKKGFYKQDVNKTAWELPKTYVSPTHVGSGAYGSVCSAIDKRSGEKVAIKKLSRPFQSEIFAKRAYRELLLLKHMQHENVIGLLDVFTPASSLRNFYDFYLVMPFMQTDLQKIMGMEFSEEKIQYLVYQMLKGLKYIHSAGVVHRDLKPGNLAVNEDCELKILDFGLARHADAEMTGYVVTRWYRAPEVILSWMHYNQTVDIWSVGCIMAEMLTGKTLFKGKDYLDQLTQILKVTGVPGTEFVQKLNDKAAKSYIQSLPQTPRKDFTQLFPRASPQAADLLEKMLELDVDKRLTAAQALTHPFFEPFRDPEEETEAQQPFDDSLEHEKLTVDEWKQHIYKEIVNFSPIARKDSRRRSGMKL

SAPK2b (h) (human), sequence (Q15759 whole entry): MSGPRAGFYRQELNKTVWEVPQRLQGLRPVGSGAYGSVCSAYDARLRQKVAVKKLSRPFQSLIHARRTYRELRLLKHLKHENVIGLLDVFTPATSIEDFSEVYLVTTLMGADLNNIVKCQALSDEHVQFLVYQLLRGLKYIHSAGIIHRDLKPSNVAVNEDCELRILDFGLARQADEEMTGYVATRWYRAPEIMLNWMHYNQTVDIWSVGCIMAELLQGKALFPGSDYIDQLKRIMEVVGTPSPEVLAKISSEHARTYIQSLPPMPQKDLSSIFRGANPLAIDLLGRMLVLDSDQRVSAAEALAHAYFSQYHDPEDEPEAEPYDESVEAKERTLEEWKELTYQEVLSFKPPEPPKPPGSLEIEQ
EphB1 (h) (human), sequence (P54762 564-984 limits assumed): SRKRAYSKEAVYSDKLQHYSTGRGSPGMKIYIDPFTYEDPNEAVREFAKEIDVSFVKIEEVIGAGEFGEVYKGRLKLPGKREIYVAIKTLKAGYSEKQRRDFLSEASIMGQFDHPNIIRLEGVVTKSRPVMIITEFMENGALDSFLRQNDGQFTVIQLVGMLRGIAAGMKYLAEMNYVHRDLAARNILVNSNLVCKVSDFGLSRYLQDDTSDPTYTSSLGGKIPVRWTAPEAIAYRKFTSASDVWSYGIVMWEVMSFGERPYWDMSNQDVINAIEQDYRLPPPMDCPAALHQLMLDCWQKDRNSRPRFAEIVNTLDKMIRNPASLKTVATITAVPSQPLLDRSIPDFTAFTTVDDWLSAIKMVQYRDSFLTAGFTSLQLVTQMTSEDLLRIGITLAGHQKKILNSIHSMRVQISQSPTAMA
FGFR2 (h) (human), sequence (P21802 456-770 limits assumed): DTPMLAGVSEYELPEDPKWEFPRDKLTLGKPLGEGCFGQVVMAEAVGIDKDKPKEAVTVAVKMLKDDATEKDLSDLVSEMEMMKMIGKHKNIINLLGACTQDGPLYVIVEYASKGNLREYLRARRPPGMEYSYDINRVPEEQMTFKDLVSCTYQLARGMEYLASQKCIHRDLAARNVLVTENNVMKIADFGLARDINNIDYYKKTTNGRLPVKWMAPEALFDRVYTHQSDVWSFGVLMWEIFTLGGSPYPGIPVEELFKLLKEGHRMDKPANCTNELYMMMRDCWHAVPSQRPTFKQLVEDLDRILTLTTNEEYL
PDGFRβ (h) (human), sequence (P09619 557-1106 limits assumed): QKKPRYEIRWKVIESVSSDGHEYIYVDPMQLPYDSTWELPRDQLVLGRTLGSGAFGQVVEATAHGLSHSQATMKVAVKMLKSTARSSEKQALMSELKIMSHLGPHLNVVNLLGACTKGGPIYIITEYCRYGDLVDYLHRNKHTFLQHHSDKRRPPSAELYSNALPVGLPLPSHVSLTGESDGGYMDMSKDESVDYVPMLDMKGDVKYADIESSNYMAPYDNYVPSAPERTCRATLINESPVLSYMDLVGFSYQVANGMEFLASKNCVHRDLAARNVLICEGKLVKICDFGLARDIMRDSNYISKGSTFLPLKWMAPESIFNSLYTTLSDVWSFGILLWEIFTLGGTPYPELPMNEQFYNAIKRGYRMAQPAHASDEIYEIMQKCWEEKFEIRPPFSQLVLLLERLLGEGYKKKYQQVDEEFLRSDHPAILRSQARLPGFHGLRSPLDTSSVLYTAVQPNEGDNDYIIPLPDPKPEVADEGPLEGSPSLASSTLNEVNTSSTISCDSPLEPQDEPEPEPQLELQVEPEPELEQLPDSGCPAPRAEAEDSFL
PKBα (h) (human), sequence (P31749 whole entry): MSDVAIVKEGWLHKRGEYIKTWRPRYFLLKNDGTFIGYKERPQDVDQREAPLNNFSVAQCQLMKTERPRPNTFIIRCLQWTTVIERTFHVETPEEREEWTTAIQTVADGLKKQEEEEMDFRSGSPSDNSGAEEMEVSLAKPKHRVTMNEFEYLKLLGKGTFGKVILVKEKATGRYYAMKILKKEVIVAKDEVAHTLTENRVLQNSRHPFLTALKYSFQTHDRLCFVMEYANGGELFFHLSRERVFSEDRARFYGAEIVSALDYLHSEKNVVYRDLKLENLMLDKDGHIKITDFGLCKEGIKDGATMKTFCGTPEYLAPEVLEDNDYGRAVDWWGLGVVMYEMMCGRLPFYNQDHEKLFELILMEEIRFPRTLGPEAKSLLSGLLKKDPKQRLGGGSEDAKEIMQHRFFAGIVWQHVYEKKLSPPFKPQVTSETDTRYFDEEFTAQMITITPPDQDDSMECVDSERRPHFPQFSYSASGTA
IGF-1R (h), activated (human), sequence (P08069 959-1367 limits assumed): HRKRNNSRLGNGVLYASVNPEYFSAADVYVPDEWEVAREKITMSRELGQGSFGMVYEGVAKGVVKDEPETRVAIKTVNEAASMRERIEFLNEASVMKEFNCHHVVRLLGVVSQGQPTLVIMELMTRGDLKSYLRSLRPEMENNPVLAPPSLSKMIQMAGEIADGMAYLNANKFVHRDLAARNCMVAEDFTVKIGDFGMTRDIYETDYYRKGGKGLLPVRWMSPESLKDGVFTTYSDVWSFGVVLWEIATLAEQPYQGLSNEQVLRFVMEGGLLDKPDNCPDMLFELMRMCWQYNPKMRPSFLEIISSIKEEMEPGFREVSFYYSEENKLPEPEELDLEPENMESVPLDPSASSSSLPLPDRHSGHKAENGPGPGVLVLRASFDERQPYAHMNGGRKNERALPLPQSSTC

% activity at 100 µM [1]: 80%
% activity at 100 µM [2]: 79%
% activity at 100 µM [3]: 123%
% activity at 100 µM [4]: 59%
% activity at 100 µM [5]: 21%
% activity at 100 µM [6]: 159%
% activity at 100 µM [7]: 44%
% activity at 100 µM [8]: 14%
% activity at 100 µM [9]: 130%
% activity at 100 µM [10]: 45%
% activity at 100 µM [11]: 70%
% activity at 100 µM [12]: 80%
% activity at 100 µM [13]: 97%
% activity at 100 µM [14]: 45%
% activity at 100 µM [15]: 81%
% activity at 100 µM [16]: 57%
% activity at 100 µM [17]: 80%
% activity at 100 µM [18]: 61%
% activity at 100 µM [19]: 74%
% activity at 100 µM [20]: 81%
% activity at 100 µM [21]: 96%
Substance: MMI-0300 (peptide)
